Measurements reported in the MegaScale stability set (Tsuboyama et al. 2023).

B1: EHEE_rd2_1257 (parent)
chain: EEERTFTNEEEARKAKKEAEKRGLRVTVTKDGTTWRVRIG

Variants of: B1
Test: folding stability dG (cDNA display proteolysis); higher = more stable
Details: PBS, room temperature

Folding stability dG [kJ/mol] of substitutions, site by site:
A19: N 2.5, M 8.81, S 3.26, K 0.218, I 6.42, C 8.49, F 8.82
F6: T -0.573
V26: W 0.0335, Y 0.134, L 0.715, F 1.5, M 1.86, A 8.92, T 3.75, P -3.25, G 2.05
E18: D 8, R 5.09, L 6.87, K 4.66, V 5.43, M 7.2, W 9.37, A 7.69
G23: R 1.66, N 4.13, L 2.25, D -0.272, C 6.61
G40: W 13.6, V 11.4, E 10.7, T 10.5, N 8.67, Q 9.97, A 9.18, P 3.83, F 12.7
T5: R 6.37, G 2.95, K 4.9, H 7.05, M 8.13, V 10.3
K16: H 6.41, L 8.17, N -0.665, E 9.64, A 14.9, Q 12.2, F 9.85, R 7.33, C 9.42, Y 9.21
T27: N 4.82, F 7.67, H 6.59, R 6.77, Q 6.24, S 7.41, W 8.19, G 1.1, A 4.97, V 7.88
T29: R 6.32, S 6.77, N 4.55, G 0.745, Q 6.82, F 9.69
A15: E 4.64, Q 2.92, H 6.97, Y 13.9, I 6, N 2.32, T 4.99, F 14.6
E2: R 8.23, G 6.93, N 7.56, W 12, Q 8.33, P 5.97, S 8.63
K30: T 10.8, V 7.67, A 6.41, E 5.48, P 3.63, M 7.33, R 8.54, Q 8.9, L 8.32, H 9.29
R38: L 9.5, W 8.81, D 4.2, Q 7.28, A 7.14, H 8.1, V 10.3, K 8.7
T33: Y 8.97, W 6.9, L 8.87, V 7.71, E 11.6, M 8.38
T34: S 7.63, K 8.23, R 7.84, N 8.43, I 11, E 7.59, V 11, W 8.72
E9: N 2.94, P 6.14, V 7.18, R 7.41, G 5.94, S 5.64, Y 11.4, K 6.61
R13: F 11.4, D 8.27, M 13.2, G 5.74, V 9.45, W 11.4, T 8.89
R36: K 8.68, P 0.874, A 3.77, S 4.9, H 7.58, Q 5.15, W 7.11, Y 10.3, E 2.19, N 4.68, L 9
R22: K 7.51, W 7.2, C 6.47, T 4.44, P -1.03, D 4.56, V 6.07
G32: N 4.04, E 5.26, S 2.44, M 1.47, D 5.29, K 2.9, T 1.67, I -0.297
R4: H 9.1, S 6.11, N 4.79, G 4.78, M 10.6, Q 8.39, V 8.19, A 6.66, Y 12.3
I39: A 2.82, P 1, S 3.5, M 5.75, N -2.13, F 7.34, Q 1.01, W 6.79, E 1.08, V 6.87, L 5.48, H 0.653, Y 6.96, G -0.996
V37: Y -0.92
E10: I 8.28, C 9.65, K 8.68, T 7.57, S 7.92, N 7.77, A 9.04, H 8.2, L 8.82, M 8.47, V 7.77, P 5.75, F 8.39, W 10.7
E20: S 3.6, H 3.91, F 4.25, A 5.01, W 5.31, K 4.77, C 6.05, Q 7, I 6.84, G 2.09, T 4.66, L 7.08, N 3.98, Y 4.31
N8: V 5.98, I 5.79, E 5.66, Y 4.13, D 7.38, R 6.22, T 9.85
R25: H 9.01, F 8.67, T 7.96, Y 8.68, E 6.28, G 3.33, K 8.61, I 8.18, Q 7.91, P 6.15
V28: A -0.749, L 10.8, C 8.21, W 3.92, Y 3.44
K21: Q 9.07, E 9.39, G 8.82, L 9.68, H 7.61, T 7.86, V 7.62, I 8.05, R 9.15, A 10.6
W35: G -2.11, P 0.745, H 2, S -0.598, N -1.21, V 2.3, T 1.5, L 2.42, E -0.757
A12: Y 5.63, I -0.623, W 3.79, C 8.38
E1: I 11.5, A 9.23, M 9.95, Y 12.8, K 7.13, S 8.45, R 7.68, L 9.74, F 12.5, D 8.78, H 8.56
E11: M 6.47, Y 3.71, C 6.55, W 4.47, D 9.55, A 7.52, I 1.2, N 4.92, S 6.11, Q 6.6, H 5.53, P -2.46
T7: K 6.83, C 8.18, I 6.52, V 7.13, F 8.37, M 7.89, S 7.98, E 8.13
L24: V 5.07, D 1.87, Y 8.69, F 8.99, E 3.68, R 4.97, N 2.64, A 4.11, K 4.92, W 6.75, H 6.09, T 0.678
E3: P 3.92, F 8.38, N 5.74, A 5.59, Q 6.03, D 7, S 6.95, V 9.76, I 10.4, R 3.9, Y 8.71
K17: I 10.5, M 10.4, G 7.44, V 9.49, Y 10.2, R 9.61, F 9.88, Q 9.88, N 9.02
K14: V 7.67, N 8.84, M 9, A 9.67, S 7.92, W 8.1, H 8.4, T 8.08, L 8.79, R 9.06
D31: K 5.61, L 7.28, F 7.08, A 5.88, W 6.34
